± gives the uncertainty stated by the source.
Assay: amyloid nucleation score (Sup35N fusion, yeast selection) (log enrichment); library NNK2; higher = more nucleation; inactive = no reads after selection
Method in brief: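 DiMSum was used to calculate nucleation scores as log enrichment of output over input reads, centred on the mode score of non-aggregating sequences. Sequences with fewer than 100 input reads were not scored. Input and output came from Illumina sequencing of plasmid inserts in psi-negative yeast expressing peptides of 20 random codons fused to Sup35N, induced 24 hours with 100 μM copper sulfate and then grown 7 days at 30°C on medium lacking adenine and uracil.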

Substance | amyloid nucleation score
NFAQWW | 0.443 ± 0.8
NFFRAENVYCSMLFSKGWDW | 6.966 ± 0.049
NFIKKGCGKGNLDLFSLRDV | inactive
NFILLDLLSLAICASRVLWA | 1.56 ± 0.087
NFLGGLNRFLNCSSM | -0.683 ± 1.1
NFMGIIVLNQ | 3.19 ± 0.09
NFNACIPNKDRSFSNVDVCV | -1.35 ± 1
NFRPCRVLRFGY | 1.03 ± 0.66
NFVYMFVKL | 4.97 ± 0.062
NFYILLATGSFYAVLGCRQY | 2.36 ± 0.12
NGCSFRGNCCDSGERNVVEV | 0.071 ± 0.6
NGDLCILLTWATWGSTE | 0.686 ± 0.33
NGFMVSFV | -1.39 ± 0.41
NGFNYFKMW | -1.65 ± 1.1
NGGPRAYLDIYDLSGVSDRR | 0.487 ± 0.18
NGIQGL | inactive
NGMFLRTRCIRVFAVRRMLQ | 1.12 ± 0.26
NGTKTP | 0.568 ± 0.47
NGTSLTMTYIRKLAFRGLEK | 0.215 ± 0.26
NGVKEYLGNTSWKCTNRA | -0.137 ± 0.5
NGVQKVVCQGTRLGCVLGLD | 0.131 ± 0.45
NGYRG | 0.376 ± 0.53
NHAQMDMKTHVINRLCKE | 0.605 ± 0.57
NHLIV | -1.09 ± 0.3
NHMLL | -0.313 ± 0.76

Substance | amyloid nucleation score
NHSGRYGRRLILRLGFFGVG | -0.655 ± 0.28
NIEVWMFYSLMNMNEA | -0.509 ± 1.1
NIFMWSSTEIHCRWKVFLRL | -0.949 ± 0.44
NIMSFFHLSLGVDFVHVSPG | 0.144 ± 0.19
NIQDLARSLDRDWTYIGIES | 3.65 ± 0.079
NIRKMSGFVNSYTAYSQGEL | inactive
NISCNSGSPGSNMTGCQESS | 0.767 ± 0.8
NISHVVNLHAWLYRLL | 3.39 ± 0.13
NISMTTWW | 4.71 ± 0.11
NIVVVYIEFSGVHPTLVLLW | -0.42 ± 0.3
NKFKG | 0.19 ± 1.1
NKLTVPYTVDVNDTILDRGK | -0.015 ± 0.46
NKSSLRVCRPLSWNMSMVSN | 0.593 ± 0.44
NKVMGAEGCTGLEL | -0.744 ± 0.28
NKYYLSNLMTCLAQKLSSSG | 0.053 ± 1.1
NLCSGTIVVFIGCMKAAWFV | 4.39 ± 0.045
NLDGCTVIS | 0.774 ± 0.51
NLFYKKSLRLCYGLLQLRDF | inactive
NLGGRFCAGFRRNHTCLGRN | -0.458 ± 0.33
NLLTPFRLRPKTHLDLYRSC | -0.196 ± 1.1
NLSNELSCI | inactive
NLSVHAENLDNNRSGAEV | -0.102 ± 0.76
NLSWLVNWMEYVRGRLW | -0.56 ± 0.4
NLSYDHPACCKWNRCYVKHR | 1.81 ± 0.14
NLVVCGNISGCLCYDYSFGK | 8.187 ± 0.032

Substance | amyloid nucleation score
NLYMPDS | 0.395 ± 0.8
NMFLFLCVRVCGVAFDKGKV | 2.28 ± 0.13
NMFVSSRSM | 0.585 ± 0.8
NMLYHYIDRSCRGAMDHHGR | inactive
NMPEFC | 0.283 ± 0.21
NNCVQTGSGGGGRCLRDTCG | 3.8 ± 0.085
NNLATPRQRVWLQVTLPARP | 0.692 ± 0.21
NNNFMRTR | 2.44 ± 0.066
NNQYINWMRKCG | -0.671 ± 0.41
NNWYILPFAGFWDFGA | 5.341 ± 0.03
NPEDPQSMLLVVGCVEKN | 0.214 ± 0.54
NPGETDQRQSWSCSDCPAFS | 1.51 ± 0.35
NPLHP | 0.116 ± 0.24
NPTYYRARGE | 2.96 ± 0.11
NQLKGYTIYWVL | 4.45 ± 0.063
NQLLTVSWYSL | 2.76 ± 0.091
NQRVLLLLKSVLYMMVAK | inactive
NQTCTE | 0.7 ± 0.66
NRCFEGFAVARFDAGRV | -0.378 ± 1
NRDVFWRFLVTTVVYELSSK | inactive
NRDVRCGVRPQHVCFQ | inactive
NRFAHNALVAL | 4.08 ± 0.062
NRFQYGCNSGSMTVWGALWF | 0.706 ± 0.81
NRILWSPNEKLLKHVTQVTL | -0.795 ± 0.61
NRKSSHYSKNCRTLLHTS | -0.097 ± 1.1

Substance | amyloid nucleation score
NRKTSGLYVFRWRKRPR | 0.264 ± 0.4
NRLDNFRHQTEGKRRV | -0.841 ± 1.1
NRNKAASYNGLYCFDPAIVD | -1.09 ± 0.55
NRNPYILGYLRPPEVDYWWW | -0.627 ± 1.1
NRQLWYPSINKYFFKSADPL | inactive
NRRGANCVQS | -0.372 ± 0.39
NRRYLKPSGPEEGWMMLSGT | 1.03 ± 0.35
NRTAFPCFLA | -0.473 ± 0.49
NSAPRGQCRSVFGLMYSYSI | inactive
NSDCEVPFTWFVMLIGAPGG | -0.393 ± 0.76
NSDISARCGSCVYLWYVSDD | 8.712 ± 0.048
NSFVAIKCIV | -0.023 ± 0.33
NSGSGAAFGVSLHVVNCARS | 0.045 ± 0.79
NSGSYTSSFNDLVDTLSVLS | inactive
NSIGV | -1.02 ± 0.55
NSKGN | 0.112 ± 1.1
NSNFRLTCTFSSMHYKLARG | 2.9 ± 0.21
NSNGEFIKGACHMVRLFGLQ | 0.098 ± 1
NSPMSKSLNRT | 0.347 ± 0.22
NSRLEVGSNSKQDLMAMSKT | -1.12 ± 0.74
NSSRGQPHLSNFPIRHHHVN | 0.461 ± 0.66
NSVETLMNQRCWVCHTCCVK | -0.472 ± 0.64
NSVRNTYWKAPGNLTEGVSG | -0.054 ± 0.4
NTAVSYFNHKSVAFFYFCDL | 4.94 ± 0.064
NTEKSIVVRDMIKDSYPFSV | inactive

Substance | amyloid nucleation score
NTFQSKDRGQWCSTRNAYKG | -0.772 ± 0.45
NTHFFVMRVEFGPWYTSSCS | 2.42 ± 0.21
NTLLILHIDICYVYSVILTF | -0.942 ± 0.76
NTLVMRWCRGCQWKEQLASN | 1.1 ± 0.41
NTRGWDAGS | 1.08 ± 0.28
NTVFLLSFGCCEYYRFWGYL | 8.34 ± 0.057
NTYLSMEFLLTP | inactive
NVDWCCQICSCFTRIFELLM | 2.21 ± 0.23
NVGGIASLGPFTY | -0.14 ± 0.27
NVHCILMSGVMGIQYRWKVL | 0.395 ± 0.51
NVHDSLFWQFVIVNYTIGLS | 3.38 ± 0.042
NVIMMDLWVDLAFKSLGYG | 6.291 ± 0.046
NVLRRFNCWRYESGFSNFVN | -1.38 ± 0.36
NVVMHRENVYFCLVNLHWTD | 7.837 ± 0.04
NWFHVRTDCRRWGGRKVYYN | -0.883 ± 1.1
NWIPGVVEKRSRLSGFWSWL | 0.657 ± 0.23
NWLKYFYVSDFQWWKGYPHV | -0.067 ± 0.36
NWVWLKWRITQYFIHSASSS | 1.43 ± 0.19
NWWYSRSRPHMGSSISFSEV | -0.37 ± 0.41
NYLLMR | 0.414 ± 0.35
NYRLQIINGRRSTSVRVQGA | 0.606 ± 0.36
NYTGQTFVMTGLISFNPQIG | 5.79 ± 0.074
NYVVE | 4.73 ± 0.069
PAASLRLRELMRYDDWRGVA | 0.03 ± 0.38
PATLAKIYSVGVGNYHRFVR | inactive

Substance | amyloid nucleation score
PAWSITLVPLLHTGCSDTKR | 0.582 ± 0.31
PCACCYGSLAYAAVHSNWLG | 8.495 ± 0.07
PCCFYLRICLCFSNTVEPIG | 4.07 ± 0.046
PCHFVCDCTRMASTTVIHV | 0.01 ± 0.45
PCISDIFKMDNIYGQQSLFP | -0.266 ± 1.1
PCNLKNNCVSEWIGLFVQPQ | 2.23 ± 0.18
PCTMDYGVPRT | 0.585 ± 0.66
PCYFINFLRFSWNIQLYNVL | -0.668 ± 1.1
PDFRSP | -0.451 ± 0.41
PDFYMYPSLNDKSDLI | -0.78 ± 0.76
PDLMLPDRLDIERCLQVWD | 0.049 ± 0.18
PDRVLLYKLTVRRFTGCDWG | 2.32 ± 0.17
PDYYYMTTLLYCRSSKSLKR | -1.46 ± 1.1
PEFLNKMQTTIYDKDCYMDR | inactive
PEMLHTVILGISSNHYERGL | -1.12 ± 0.74
PEMWHYMRFSSIKIRLTSKF | -0.016 ± 0.65
PEWFGR | 0.588 ± 0.23
PEYPVQIYMSMDL | -1.33 ± 0.78
PFGGVEAFAGRMWWVEHSYW | 0.009 ± 0.55
PFGMCSFTVVIYYGCFEDAH | 0.519 ± 0.3
PFMLSVHFALYMSDYIYMHL | -0.02 ± 0.46
PFVTFATVFLLKPMVFAKQC | 1.23 ± 0.38
PGIMNVPS | 0.456 ± 0.32
PGSVWFSLTSMHE | 0.623 ± 0.66
PGVPP | -1.06 ± 1.1

Substance | amyloid nucleation score
PHDVFRWCVCAVPGSERSTG | 0.815 ± 0.25
PHVFYCSILV | inactive
PIFNMSTPNFLSSPESRLLV | inactive
PIKYIVFSVLSCRRCLGNSM | 0.651 ± 0.48
PIRCRMKFY | -0.599 ± 0.38
PISFVCYMEKVLDYANWPCR | 8.458 ± 0.066
PKQDTA | -0.967 ± 0.36
PKRSCLVLGYNIVITDMQAR | 6.28 ± 0.067
PLDPHCVFPIDNTSMMRVV | 0.295 ± 0.32
PLLTMWDLDSGVSGFCQVRS | -0.477 ± 0.35
PLMSLLPPPNTR | -0.935 ± 0.44
PMFNEHRFSR | 2.37 ± 0.1
PMSSMMRGSDPKV | 0.119 ± 0.76
PNRYYQLGTYFLNVQVRQFG | 4.18 ± 0.045
PPRGRTAINMTSKCQARVRP | 0.966 ± 0.3
PQAVLKGTQGHNLTKNLTWA | -0.774 ± 0.49
PRGEFTWWSLGIIPNRWQCR | -0.771 ± 1.1
PRKLLSLKPNSTAAGKCATL | 2.89 ± 0.079
PRKPRNVDSL | 0.134 ± 0.18
PRLYTPILYCLLTRCKVYTT | 3.41 ± 0.051
PRWRDRVVNMKSDLDGV | 5.51 ± 0.073
PSAVRTILVTAI | -0.447 ± 0.35
